Our source for the Kd values is the Immune Epitope Database (IEDB).

One assay addresses HLA-A*01:01. In words: IEDB peptide-MHC binding, purified MHC/direct/fluorescence; filed as Kd, often an IC50 or EC50 that approximates it; ≥ and ≤ were set here for values at or beyond the usual limits of such assays.
Another assay has as its target HLA-A*02:01. The assay is described as above.
Another assay deals with HLA-A*03:01. The assay is described as above.
For assay [1], the target named is HLA-A*11:01. Described as above.
Another assay has as its target HLA-A*24:03. The assay is described as above. Particulars: source organism: Yersinia pestis.
Assay [2] has as its target HLA-A*26:01. The description is as above.
A further assay deals with HLA-A*31:01. Described as above.
A further assay concerns the target HLA-A*69:01. The description is as above.
Another assay concerns the target HLA-B*07:02. Described as above.
For assay [3], the target named is HLA-B*08:01. Described as above.
Assay [4] has as its target HLA-B*15:01. The description is as above.
Another assay addresses HLA-B*27:05. The description is as above.
Assay [5] addresses HLA-B*40:01. The assay is described as above.
A further assay has as its target HLA-B*44:02. Described as above.
The target in a further assay is HLA-B*58:01. Described as above.
The next assay has as its target HLA-A*02:50. In words: IEDB peptide-MHC binding, purified MHC/competitive/fluorescence; filed as Kd, often an IC50 or EC50 that approximates it; ≥ and ≤ were set here for values at or beyond the usual limits of such assays.
Assay [6] concerns the target HLA-A*02:03. The assay is described as above. The note with it: source organism: Homo sapiens.
The next assay addresses HLA-A*02:06. The assay is described as above. Particulars: source organism: Homo sapiens.
Another assay has as its target HLA-A*26:02. The assay is described as above.
The target in the next assay is HLA-A*30:01. Described as above. The note with it: source organism: Homo sapiens.
The target of assay [7] is HLA-B*08:01. Described as above. Particulars: source organism: Homo sapiens.
Assay [8] addresses HLA-B*39:01. The assay is described as above.
The target in a further assay is HLA-B*15:17. In words: IEDB peptide-MHC binding, purified MHC/direct/fluorescence; filed as Kd, often an IC50 or EC50 that approximates it; ≥ and ≤ were set here for values at or beyond the usual limits of such assays. The note with it: source organism: Escherichia coli O157:H7.
Another assay deals with HLA-B*18:01. Described as above.
The next assay has as its target HLA-B*57:01. The description is as above.
Assay [9] addresses HLA-A*11:01. In words: IEDB peptide-MHC binding, purified MHC/competitive/fluorescence; filed as Kd, often an IC50 or EC50 that approximates it; ≥ and ≤ were set here for values at or beyond the usual limits of such assays. The note with it: source organism: Escherichia coli str. K-12 substr. MG1655.
The target in assay [10] is HLA-A*68:02. The assay is described as above. Particulars: source organism: Escherichia coli str. K-12 substr. MG1655.
The target in assay [11] is HLA-B*15:01. The description is as above.
In assay [12] the target is HLA-B*40:01. Described as above.
Another assay has as its target HLA-C*03:03. In words: IEDB peptide-MHC binding, purified MHC/direct/fluorescence; filed as Kd, often an IC50 or EC50 that approximates it; ≥ and ≤ were set here for values at or beyond the usual limits of such assays.
The target in assay [13] is HLA-A*68:02. Described as above. The note with it: source organism: Vibrio parahaemolyticus.
For another assay, the target named is HLA-B*08:02. Described as above. The note with it: source organism: Vibrio parahaemolyticus RIMD 2210633.
The next assay concerns the target HLA-B*15:09. The description is as above. The note with it: source organism: Vibrio parahaemolyticus RIMD 2210633.
Assay [14] deals with HLA-B*39:01. Described as above. The note with it: source organism: Vibrio parahaemolyticus RIMD 2210633.
For assay [15], the target named is HLA-A*26:01. In words: IEDB peptide-MHC binding, purified MHC/competitive/fluorescence; filed as Kd, often an IC50 or EC50 that approximates it; ≥ and ≤ were set here for values at or beyond the usual limits of such assays. Particulars: source organism: Vibrio parahaemolyticus K5030.
Assay [16] concerns the target HLA-A*02:03. In words: IEDB peptide-MHC binding, purified MHC/direct/fluorescence; filed as Kd, often an IC50 or EC50 that approximates it; ≥ and ≤ were set here for values at or beyond the usual limits of such assays. The note with it: source organism: Bacillus cereus 03BB108.
The next assay deals with HLA-A*02:12. The assay is described as above. The note with it: source organism: Bacillus cereus 03BB108.
Setting [17] is: source organism: Yersinia pestis.
[18] abbreviates: source organism: Escherichia coli O157:H7.
Setting [19] is: source organism: Escherichia coli APEC O1.
Where [20] appears, read: source organism: Vibrio parahaemolyticus.
Where [21] appears, read: source organism: Vibrio parahaemolyticus RIMD 2210633.
Where [22] appears, read: source organism: Escherichia coli O139:H28 str. E24377A.
The mark [23] stands for this setting: source organism: Vibrio parahaemolyticus K5030.
Setting [24] is: source organism: Vibrio cholerae.
[25] abbreviates: source organism: Bacillus anthracis.

For orientation: Kd means the equilibrium constant for the complex coming apart. Consider FMSLQSGDV, for which the equilibrium dissociation constant (Kd) in the assay with HLA-A*01:01 (setting [17]), with HLA-A*02:01 (setting [17]), in the assay with HLA-A*03:01 (setting [17]), with HLA-A*11:01 [1] (setting [17]), in the assay with HLA-A*24:03 and with HLA-A*26:01 [2] (setting [17]) was not below 20 µM in each case. Moreover, the Kd with HLA-A*31:01 (setting [17]) was not below 20 µM; with HLA-A*69:01 (setting [17]), 1.34 µM; with HLA-B*07:02 (setting [17]) it was not below 20 µM; in the assay with HLA-B*08:01 [3] (setting [17]) it was not below 20 µM; in the assay with HLA-B*15:01 [4] (setting [17]), not below 20 µM; with HLA-B*27:05 (setting [17]) it was not below 20 µM. Further, the Kd with HLA-B*40:01 [5] (setting [17]) was not below 20 µM; with HLA-B*44:02 (setting [17]), not below 20 µM; with HLA-B*58:01 (setting [17]), not below 20 µM; in the assay with HLA-A*02:50 (source organism: Yersinia pestis Nepal516), 0.0025 µM.

With VRVCACPGR, the Kd was not below 20 µM with HLA-A*02:03 [6]; 2.07 µM in the assay with HLA-A*02:06; not below 20 µM with HLA-A*26:02 (source organism: Homo sapiens); 2.33 µM with HLA-A*30:01; not below 20 µM with HLA-B*08:01 [7]; not below 20 µM in the assay with HLA-B*39:01 [8] (source organism: Homo sapiens).

In the case of NLPSKPVWL, the dissociation constant (Kd) with HLA-A*01:01 (setting [18]) is not below 20 µM; with HLA-A*02:01 (setting [18]), 6.91 µM; with HLA-A*03:01 (setting [18]) it was not below 20 µM; with HLA-A*31:01 (setting [18]) it was not below 20 µM; with HLA-B*07:02 (setting [18]), 7 µM; with HLA-B*15:01 [4] (setting [18]) it was not below 20 µM. Further, the Kd with HLA-B*15:17, with HLA-B*18:01 (setting [18]), with HLA-B*27:05 (setting [18]), with HLA-B*57:01 (setting [18]), with HLA-B*58:01 (setting [18]) and with HLA-A*11:01 [9] was not below 20 µM in each case. The Kd in the assay with HLA-A*26:02 (source organism: Escherichia coli str. K-12 substr. MG1655) is 0.565 µM; with HLA-A*68:02 [10], 3.54 µM.

For HESSVSWMF, the Kd with HLA-B*15:01 [11] (setting [19]) turned out to be 0.67 µM; with HLA-B*40:01 [12] (setting [19]), 0.0011 µM.

Take VLNETTNWL: the Kd with HLA-A*69:01 (source organism: West Nile virus) and with HLA-C*03:03 (source organism: Japanese encephalitis virus) was not below 20 µM each time.

Consider FQYYGIDWV, for which the Kd was 0.0117 µM with HLA-A*02:01 (setting [20]), 0.495 µM with HLA-A*69:01 (setting [20]) and not above 0.0001 µM with HLA-A*02:50 (setting [21]).

As to LQMLGENVL, the dissociation constant (Kd) with HLA-B*15:01 [11] (setting [22]) amounted to 0.152 µM; with HLA-B*39:01 [8] (setting [22]) it was 0.017 µM; with HLA-B*40:01 [12] (setting [22]), 0.836 µM.

As for DMRKRIEAF, the dissociation constant (Kd) with HLA-A*01:01 (setting [20]), with HLA-A*02:01 (setting [20]), with HLA-A*11:01 [1] (setting [20]), in the assay with HLA-A*68:02 [13], with HLA-A*69:01 (setting [20]) and with HLA-B*07:02 (setting [20]) was not below 20 µM in each case. Further, the Kd was 0.013 µM in the assay with HLA-B*08:01 [3] (setting [21]); 0.171 µM in the assay with HLA-B*08:02; not below 20 µM in the assay with HLA-B*15:09; 0.025 µM with HLA-B*18:01 (setting [21]); not below 20 µM with HLA-B*39:01 [14]; not below 20 µM in the assay with HLA-B*57:01 (setting [20]). In addition, the equilibrium dissociation constant (Kd) was not below 20 µM in the assay with HLA-B*58:01 (setting [20]), not below 20 µM with HLA-A*26:01 [15], 0.0073 µM in the assay with HLA-A*26:02 (setting [23]) and not below 20 µM with HLA-B*15:01 [11] (setting [23]).

On to FLHPKHWGT, for which the Kd is not below 20 µM in the assay with HLA-A*01:01 (setting [24]); 0.157 µM in the assay with HLA-A*02:01 (setting [24]); not below 20 µM in the assay with HLA-A*03:01 (setting [24]); not below 20 µM with HLA-A*11:01 [1] (setting [24]); not below 20 µM with HLA-A*26:01 [2] (setting [24]); not below 20 µM with HLA-A*31:01 (setting [24]). Moreover, the Kd in the assay with HLA-A*69:01 (setting [24]) is 3.48 µM; with HLA-B*07:02 (setting [24]), not below 20 µM; with HLA-B*08:01 [3] (setting [24]), 0.285 µM; in the assay with HLA-B*15:01 [4] (setting [24]) it was not below 20 µM; in the assay with HLA-B*27:05 (setting [24]) it was not below 20 µM; in the assay with HLA-B*40:01 [5] (setting [24]) it was not below 20 µM. The Kd is not below 20 µM with HLA-B*44:02 (setting [24]), not below 20 µM with HLA-B*58:01 (setting [24]) and not above 0.0001 µM with HLA-A*02:50 (source organism: Vibrio cholerae 2740-80).

In the assay with HLA-C*03:03 (source organism: Leishmania major strain Friedlin), VAAHNAEAM yielded a Kd of 0.002 µM.

AQMVWIHGV: the Kd in the assay with HLA-A*02:01 (setting [25]) was 0.0013 µM; with HLA-A*02:03 [16] it was 0.03 µM; in the assay with HLA-A*02:12 it was 0.071 µM; with HLA-B*07:02 (setting [25]) it was not below 20 µM; in the assay with HLA-A*02:50 (source organism: Bacillus anthracis str. A2012), 0.0003 µM.
